Measurements as given in paper PMC4802042, “A conserved motif in JNK/p38-specific MAPK phosphatases as a determinant for JNK1 recognition and inactivation” (Nature Communications, 2016).

Target: double-phosphorylated JNK1 (phospho-JNK1) (human, double-phosphorylated (sites not stated for this protein))
Assay: cell-based or functional assay

B1: MKP7-CD (F285D) (domain or fragment, human, UniProt Q9BY84 156-301, looked up)
chain: NIGPTRILPNLYLGCQRDVLNKELMQQNGIGYVLNASNTCPKPDFIPESHFLRVPVNDSFCEKILPWLDKSVDFIEKAKASNGCVLVHCLAGISRSATIAIAYIMKRMDMSLDEAYRFVKEKRPTISPNDNFLGQLLDYEKKIKNQ
phosphatase activity for JNK1 dephosphorylation, relative to wild-type MKP7-CD (Fig. 4a): ~10 fold
